Test results published in US8236527B2, “Recombinant production of authentic human proteins using human cell expression systems” (Humanzyme Limited, priority 2008, dated 2012).

How the values were obtained:
Type in all cases: cell-based
[1] = system: whole CD4+ cells from a healthy donor; assay: Th17 polarizing cytokines: IL-17 secretion from human CD4+ cells (ELISA); conditions: compared with cytokines from insect cell or bacterial expression system, 5 days
Text: IL-17-producing CD4+ T cells (Th-17 cells) have been identified as a unique subset of Th cells that develop along a pathway that is distinct from the Th1, and Th2-cell differentiation pathways. This finding has provided exciting new insights into immunoregulation, host defense and the pathogenesis of autoimmune diseases. Recently it has been shown that IL1β, IL6 and IL23 are important in driving human Th17 differentiation. However, TGF-β1, which is important for the differentiation of murine Th17 cells, is reported to be not required, and even inhibits human Th17 differentiation (McGeachy & Cua (2008) Immunity 28:445, Chen & O'Shea (2008) Cytokines 41:71). In this study, whole […] cells isolated from a healthy donor were stimulated with 10 μg/mL plate bound anti-CD3 and 10 μg/ml soluble anti-CD28 in the presence of Th17 polarizing cytokines from the inventive human cell expression system and from an insect cell or bacterial expression system. After 5 days supernatants were harvested for measurement of IL-17 by ELISA.

mouse splenocytes = assay: IL-23 activity: dose-dependent secretion of IL-17 from mouse splenocytes activated with PMA; conditions: 10 ng/ml PMA
human CD4+ T cells = assay: IL-23 activity: IL-17 secretion from human CD4+ T cells (ELISA)
Procedure: (A) IL-23 activities determined by the dose-dependent secretion of IL-17 from mouse splenocytes activated with 10 ng/ml PMA. (B) IL-23 activities determined by the dose-dependent secretion of IL-17 from human CD4+ T cells stimulated with […] plate bound anti-CD3 and […] soluble anti-CD28 in the presence of Th17 polarizing cytokines.
FIG. 22: Efficient differentiation of Th17 cells with authentic cytokines expressed in human cells. Whole CD4+ T cells isolated from a healthy donor were stimulated with 2 μg/mL plate bound anti-CD3 and 1 μg/mL soluble anti-CD28 in the presence of Th17 polarizing cytokines, including a titration of IL-23. After 5 days, supernatants were harvested for measurement of IL-17 by ELISA. See (A)-(G). FIG. 22 (H) depicts flow cytometry analysis on Human Th17 Differentiation by Authentic human TGF-β1. See Example 17 below.
IL-17-producing CD4+ T cells (Th17 cells) have been identified as a unique subset of T helper cells that develop along a pathway that is distinct from the Th1 and Th2-cell differentiation pathways. This finding has provided exciting new insights into immunoregulation, host defense and the pathogenesis of autoimmune diseases. Recently it has been shown that TGF-β1, […], IL-6 and IL-23 are important in driving human Th17 differentiation (Chen & O'Shea (2008) Cytokines 41:71). […] The activities were further assayed with human CD4+ cells which were isolated from a healthy donor and stimulated with 10 μg/ml plate bound anti-CD3 and 10 μg/ml soluble anti-CD28 in the presence of Th17 polarizing cytokines. After 5 days supernatants were harvested for measurement of IL-17 by ELISA.

B1: authentic human IL-23: IL-23 from engineered human HEK293 cells, disulfide-linked heterodimer of 55 kD (protein, UniProt Q9NPF7 20-189; P29460 23-328, looked up)
Interleukin-23 subunit alpha: RAVPGGSSPAWTQCQQLSQKLCTLAWSAHPLVGHMDLREEGDEETTNDVPHIQCGDGCDPQGLRDNSQFCLQRIHQGLIFYEKLLGSDIFTGEPSLLPDSPVGQLHASLLGLSQLLQPEGHHWETQQIPSLSPSQPWQRLLLRFKILRSLQAFVAVAARVFAHGAATLSP
Interleukin-12 subunit beta: IWELKKDVYVVELDWYPDAPGEMVVLTCDTPEEDGITWTLDQSSEVLGSGKTLTIQVKEFGDAGQYTCHKGGEVLSHSLLLLHKKEDGIWSTDILKDQKEPKNKTFLRCEAKNYSGRFTCWWLTTISTDLTFSVKSSRGSSDPQGVTCGAATLSAERVRGDNKEYEYSVECQEDSACPAAEESLPIEVMVDAVHKLKYENYTSSFFIRDIIKPDPPKNLQLKPLKNSRQVEVSWEYPDTWSTPHSYFSLTFCVQVQGKSKREKKDRVFTDKTSATVICRKNASISVRAQDRYYSSSWSEWASVPCS
induction of IL-17 secretion [1]: significantly more effective
activity relative to insect cell IL-23, IL-17 secretion from mouse splenocytes (mouse splenocytes): ten fold more active
fold more potent than the cytokine produced from insect cells (FIG. 21 heading) (human CD4+ T cells; assay not specified in the heading): 500 fold
concentration at which maximum induction of IL-17 secretion was achieved (human CD4+ T cells; human CD4+ cells, 5 days): 0.1 ng/mL
fold more potent for inducing IL-17 secretion than insect cell IL-23 (human CD4+ T cells; human CD4+ cells, anti-CD3 and anti-CD28, Th17 polarizing cytokines, 5 days): 100 fold
